Measurements published in PMC11860134, “PET Imaging of CD206 Macrophages in Bleomycin-Induced Lung Injury Mouse Model” (Pharmaceutics, 2025).

Tests used:
[1] = molecular target: T1, murine CD206 (Recombinant mouse MMR/CD206 protein) (Mus musculus, UniProt Q61830); experiment: CD206 plate binding assay; conditions: 1 µg CD206 per well, 2 µg (0.1 µCi) tracer, n = 10
T1 construct: purchased R&D Systems
T1 sequence (Q61830 19-1388 limits assumed): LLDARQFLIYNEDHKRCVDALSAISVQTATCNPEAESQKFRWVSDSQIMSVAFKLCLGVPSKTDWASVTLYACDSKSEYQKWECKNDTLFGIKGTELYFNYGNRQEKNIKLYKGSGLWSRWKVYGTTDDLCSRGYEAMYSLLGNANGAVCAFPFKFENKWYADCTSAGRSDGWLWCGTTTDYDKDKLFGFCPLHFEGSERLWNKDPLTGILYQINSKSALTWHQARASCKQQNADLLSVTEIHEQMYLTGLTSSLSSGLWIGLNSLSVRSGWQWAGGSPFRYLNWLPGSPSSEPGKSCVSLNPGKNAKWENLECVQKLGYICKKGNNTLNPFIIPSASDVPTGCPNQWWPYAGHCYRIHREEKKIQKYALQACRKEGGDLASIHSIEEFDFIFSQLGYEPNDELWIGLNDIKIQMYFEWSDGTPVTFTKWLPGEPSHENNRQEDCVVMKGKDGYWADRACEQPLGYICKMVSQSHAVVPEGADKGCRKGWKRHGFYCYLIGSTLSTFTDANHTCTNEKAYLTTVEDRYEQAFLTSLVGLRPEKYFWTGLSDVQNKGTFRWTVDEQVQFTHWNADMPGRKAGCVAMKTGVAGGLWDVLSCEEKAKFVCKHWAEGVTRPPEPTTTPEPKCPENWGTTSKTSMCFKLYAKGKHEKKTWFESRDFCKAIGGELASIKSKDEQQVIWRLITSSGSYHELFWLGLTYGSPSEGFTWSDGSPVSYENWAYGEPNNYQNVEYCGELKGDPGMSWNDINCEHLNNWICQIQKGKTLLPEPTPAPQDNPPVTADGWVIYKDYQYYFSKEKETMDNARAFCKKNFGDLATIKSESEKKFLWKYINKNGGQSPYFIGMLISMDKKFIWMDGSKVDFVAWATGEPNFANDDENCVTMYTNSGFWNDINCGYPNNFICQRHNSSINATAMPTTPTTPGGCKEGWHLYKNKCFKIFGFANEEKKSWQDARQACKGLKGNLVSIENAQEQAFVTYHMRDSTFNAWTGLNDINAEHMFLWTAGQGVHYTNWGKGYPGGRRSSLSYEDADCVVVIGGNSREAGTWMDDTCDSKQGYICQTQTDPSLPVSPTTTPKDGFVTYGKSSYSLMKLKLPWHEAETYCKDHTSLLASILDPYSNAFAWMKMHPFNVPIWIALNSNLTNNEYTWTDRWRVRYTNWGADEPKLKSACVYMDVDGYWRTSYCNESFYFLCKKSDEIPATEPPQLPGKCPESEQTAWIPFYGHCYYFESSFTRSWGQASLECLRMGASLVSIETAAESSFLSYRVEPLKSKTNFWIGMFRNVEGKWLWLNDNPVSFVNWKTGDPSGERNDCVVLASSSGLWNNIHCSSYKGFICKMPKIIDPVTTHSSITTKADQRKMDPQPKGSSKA
Method: The affinity of linear and cyclic RP832c to murine CD206 (Recombinant mouse MMR/CD206 protein, R&D Systems, Minneapolis, MN, USA) protein was tested via plate binding study using blocking and non-blocking groups. 48 h before the experiment 1 µg of CD206 (in 0.1 mL 15 mM Na2CO3, 35 mM NaHCO3) was added to each well of 96-well flat bottom plate. The plate was kept at 4 °C for 48 h. On the day of the study, 5 µg (0.1 mL aqueous solution) of linear or cyclic RP832c was added to each well (n = 10) of each blocking group and was incubated at 37 °C for an hour. Then, 2 µg (0.1 µCi) of [^68Ga]RP832c was added to each well (n = 10 for each group) of both blocking and non-blocking groups. Both groups were incubated at 37 °C for an hour. Wells were rinsed with PBS (pH = 7) three times. Three wells were used as standards. Each well of the blocking and non-blocking groups and the standards were measured via the HIDEX gamma counter (Lablogic, Clair-Mel City, FL, USA). Data were decay corrected, and binding (%) values were calculated according to standards.

[2] = tested on: collagen I and III fibers; experiment: Picro Sirius Red (PSR) staining of lung sections, ImageJ quantification; assay type: in vivo, mouse; conditions: lungs of BLM cohort given the tracer
Method: Following PET/CT imaging, lungs from all cohorts (bleomycin-induced lung injury model administered with linear or cyclic [^68Ga]Ga-RP832c, healthy mice administered with linear or cyclic [^68Ga]Ga-RP832c, and mice not administered bleomycin) were collected and fixed in 10% formalin. After 48 h of fixation, the lungs were transferred to 70% ethanol and after an additional 24 h, samples were sent for preparation of tissue sections. Tissue sections were prepared by the UAB Pathology Core Research Laboratory, Birmingham, AL, USA. Subsequently, tissue sections were stained with CD206 (Mouse MMR/CD206 Antibody (20 µg/mL, Cat: AF2535, R&D, Minneapolis, MN, USA). The secondary antibody was the Rabbit anti-goat IgG (H+L) HRP (1:2000 dilution, Cat no: 81-1620, Invitrogen, Waltham MA, USA). Picro Sirius Red Staining was conducted using a commercial kit (Picro Sirius Red Stain Kit, ab150681, Abcam, Waltham, MA, USA). Collagen was stained in red while muscle fibers and cytoplasm were stained in yellow.
Picro Sirius Red staining was carried out to detect collagens due to pulmonary fibrosis. The kit is intended for use in the histological visualization of collagen I and III fibers. Picro Sirius Red solution was applied to completely cover the tissue section and then the sample was incubated for 60 min. Slides were rinsed twice in acetic acid solution (0.5%). Slides were rinsed in absolute alcohol and dehydrated in 2 changes in absolute alcohol. The mounting media used was Permount™ Mounting Medium, Pittsburgh, PA, USA. CD206-, PSR-, and H&E-stained samples were imaged using EVOS™ M7000 Imaging System (Invitrogen, Waltham, MA, USA). For IHC semi-quantification, all slides were scored under a light microscope according to the degree of staining (0 points negative for staining, 1 point light yellow, 2 points light brown, and 3 points dark brown) and the range of positivity (1 points 0 to 25%, 2 points 26 to 50%, 3 points 51 to 75%, and 4 points 76 to 100%), and the final scores were summed for analysis.

RWKFGGFKWR [cyclic [^68Ga]Ga-RP832c]
CD206 plate binding % ([1]; blocking: 5 µg linear or cyclic RP832c, 37 °C 1 h before tracer): 10.36 ± 0.44% | CD206 plate binding % ([1]; non-blocking, 37 °C 1 h, gamma counter): 37.60 ± 1.40% | area % values for PSR staining (ImageJ) ([2]; 1 week post bleomycin instillation): 0.86 ± 0.44% | area % values for PSR staining (ImageJ) ([2]; 2 weeks post bleomycin instillation): 1.28 ± 1.06% | area % values for PSR staining (ImageJ) ([2]; 3 weeks post bleomycin instillation): 1.36 ± 0.75%
